{"source": "paper PMC3124598", "molecular_target": "TcpP-HSV (wild type, HSV epitope-tagged TcpP) (V. cholerae) (UniProt P29485)", "sequence (P29485 whole entry)": "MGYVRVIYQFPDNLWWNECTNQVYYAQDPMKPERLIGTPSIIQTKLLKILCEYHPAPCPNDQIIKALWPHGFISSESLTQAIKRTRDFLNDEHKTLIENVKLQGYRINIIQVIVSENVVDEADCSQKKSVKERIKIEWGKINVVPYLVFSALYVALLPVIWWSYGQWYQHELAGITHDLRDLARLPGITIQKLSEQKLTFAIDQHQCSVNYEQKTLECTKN", "assay": "[…], in 20 mM HEPES pH 7.0, 150 mM NaCl) […]", "data": [{"substance": "ToxR-P101L (chromosomal toxR locus) (natural protein)", "values": [{"measurement": "percent of wild-type levels of interaction (% of wild-type)", "value": 15}]}]}
